According to patent US20180251503A1 (Memorial Sloan Kettering, published 2018):

B1: GD2xCD3-HDD bispecific fusion protein (scFv5F11-scFvhOKT3 with HNF-1alpha dimerization component, Y-BT-HDD) (bispecific antibody)
scFv: QVQLQQSGPELVKPGASVKISCKTSGYKFTEYTMHWVKQSHGKCLEWIGGINPNNGGTNYNQKFKGKATLTVDKSSSTAYMELRSLTSEDSAVYYCARDTTVPYAYWGQGTTVTVSSGGGGSGGGGSGGGGSDIELTQSPAIMSASPGEKVTMTCSASSSISYMHWYQQKPGTSPKRWIYDTSKLASGVPARFSGSGSGTSYSLTISSMEAEDAATYYCHQRSSYPLTFGCGTKLEIKRASTKGPGGGGSGGGGSGGGGSQVQLVQSGGGVVQPGRSLRLSCKASGYTFTRYTMHWVRQAPGKGLEWIGYINPSRGYTNYNQKFKDRFTISRDNSKNTAFLQMDSLRPEDTGVYFCARYYDDHYCLDYWGQGTPVTVSSGGGGSGGGGSGGGGSDIQMTQSPSSLSASVGDRVTITCSASSSVSYMNWYQQTPGKAPKRWIYDTSKLASGVPSRFSGSGSGTDYTFTISSLQPEDIATYYCQQWSSNPFTFGQGTKLQITRTPLGDTTHTSGMVSKLSQLQTELLAALLESGLSKEALIQALGEGSGGAPHHHHHH
B2: GD2xCD3 bispecific fusion protein (scFv5F11-(G4S)3-scFvhOKT3, Y-BT, without dimerization component) (bispecific antibody)
scFv: QVQLQQSGPELVKPGASVKISCKTSGYKFTEYTMHWVKQSHGKCLEWIGGINPNNGGTNYNQKFKGKATLTVDKSSSTAYMELRSLTSEDSAVYYCARDTTVPYAYWGQGTTVTVSSGGGGSGGGGSGGGGSDIELTQSPAIMSASPGEKVTMTCSASSSISYMHWYQQKPGTSPKRWIYDTSKLASGVPARFSGSGSGTSYSLTISSMEAEDAATYYCHQRSSYPLTFGCGTKLEIKRASTKGPGGGGSGGGGSGGGGSQVQLVQSGGGVVQPGRSLRLSCKASGYTFTRYTMHWVRQAPGKGLEWIGYINPSRGYTNYNQKFKDRFTISRDNSKNTAFLQMDSLRPEDTGVYFCARYYDDHYCLDYWGQGTPVTVSSGGGGSGGGGSGGGGSDIQMTQSPSSLSASVGDRVTITCSASSSVSYMNWYQQTPGKAPKRWIYDTSKLASGVPSRFSGSGSGTDYTFTISSLQPEDIATYYCQQWSSNPFTFGQGTKLQITRHHHHHH
B3: Humanized OKT3 IgG (parental humanized OKT3 antibody) (antibody, V domains shown)
VH: QVQLVQSGGGVVQPGRSLRLSCKASGYTFTRYTMHWVRQAPGKGLEWIGYINPSRGYTNYNQKFKDRFTISRDNSKNTAFLQMDSLRPEDTGVYFCARYYDDHYCLDYWGQGTPVTVSS
VL: DIQMTQSPSSLSASVGDRVTITCSASSSVSYMNWYQQTPGKAPKRWIYDTSKLASGVPSRFSGSGSGTDYTFTISSLQPEDIATYYCQQWSSNPFTFGQGTKLQITR

Target: CD3 on T cells (Jurkat cells; purified human T cells) (human, UniProt P07766 23-207; P09693 23-182; P04234 22-171)
Experiment: cell-based or functional assay

Binder	IFN-γ release from human T cells (no tumor cells), ELISA [pg/mL]	IL-2 release from human T cells (no tumor cells), ELISA [pg/mL]	IL-10 release from human T cells (no tumor cells), ELISA [pg/mL]	TNF-α release from human T cells (no tumor cells), ELISA [pg/mL]
B1	2.1	2.2	2.1	7.6
B2	1.7	2	3.6	7.9
B3	228	36.5	29.8	86.7
